Biological target: T1, MORC2 aspartate mutant (Homo sapiens, UniProt Q9Y6X9 1-1032, K704D;R707D;K713D;K716D;K721D;K722D;R754D;R755D;K756D;R758D;K760D;R761D)
T1 sequence: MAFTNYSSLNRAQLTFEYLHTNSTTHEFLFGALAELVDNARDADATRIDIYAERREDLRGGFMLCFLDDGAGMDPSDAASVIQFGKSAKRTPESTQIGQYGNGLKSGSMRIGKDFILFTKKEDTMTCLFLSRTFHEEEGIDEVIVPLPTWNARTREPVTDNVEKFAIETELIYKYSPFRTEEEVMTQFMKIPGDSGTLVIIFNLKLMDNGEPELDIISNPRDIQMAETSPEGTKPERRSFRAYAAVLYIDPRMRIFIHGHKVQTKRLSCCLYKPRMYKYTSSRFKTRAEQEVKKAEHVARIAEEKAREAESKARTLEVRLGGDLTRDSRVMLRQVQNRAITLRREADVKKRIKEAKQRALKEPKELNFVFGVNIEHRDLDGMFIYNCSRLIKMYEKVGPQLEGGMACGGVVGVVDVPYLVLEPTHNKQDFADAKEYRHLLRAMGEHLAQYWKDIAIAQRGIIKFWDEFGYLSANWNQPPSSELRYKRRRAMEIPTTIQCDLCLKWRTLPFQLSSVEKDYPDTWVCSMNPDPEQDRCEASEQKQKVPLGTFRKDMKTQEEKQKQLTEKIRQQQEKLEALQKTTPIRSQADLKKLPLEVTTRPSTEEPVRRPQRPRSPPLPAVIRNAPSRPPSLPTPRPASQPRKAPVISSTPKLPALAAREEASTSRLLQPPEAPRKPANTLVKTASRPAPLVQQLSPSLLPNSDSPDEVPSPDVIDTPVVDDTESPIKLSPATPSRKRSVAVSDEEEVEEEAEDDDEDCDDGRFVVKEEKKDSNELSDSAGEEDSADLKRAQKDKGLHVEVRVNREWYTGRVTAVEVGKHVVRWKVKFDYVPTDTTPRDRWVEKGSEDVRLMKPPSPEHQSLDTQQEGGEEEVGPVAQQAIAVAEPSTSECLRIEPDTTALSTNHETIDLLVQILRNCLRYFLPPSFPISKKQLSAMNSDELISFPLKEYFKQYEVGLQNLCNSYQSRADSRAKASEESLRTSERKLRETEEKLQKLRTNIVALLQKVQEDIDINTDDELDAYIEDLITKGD
Assay: fluorescence anisotropy; apo; FA/EMSA: 50 mM NaCl, 3 mM MgCl2, 20 mM Na-HEPES pH 7.4, 1 mM TCEP, 10% glycerol, 0.025 mM ZnCl2, 50 ug/ml BSA, room temperature; 1 nM nucleic acid (FA) or 20 nM DNA (EMSA)
Conditions: protein: recombinant; tags: tag removed by TEV; chain copies: 2; label: 5'-6-FAM; blunt

B1: Random 35mer dsDNA (dsDNA)
DNA 1: ATAGGGTCCATCAGAATTCGGATGAACTCGGTGTG
DNA 2: CACACCGAGTTCATCCGAATTCTGATGGACCCTAT
For B1, the Kd was 380 ± 120 nM.
